Reference: US20210163946A1

Target: human C5a receptor (human) (UniProt P21730)
Test: cell-based or functional assay

Sequence of human C5a receptor (human) (P21730 whole entry): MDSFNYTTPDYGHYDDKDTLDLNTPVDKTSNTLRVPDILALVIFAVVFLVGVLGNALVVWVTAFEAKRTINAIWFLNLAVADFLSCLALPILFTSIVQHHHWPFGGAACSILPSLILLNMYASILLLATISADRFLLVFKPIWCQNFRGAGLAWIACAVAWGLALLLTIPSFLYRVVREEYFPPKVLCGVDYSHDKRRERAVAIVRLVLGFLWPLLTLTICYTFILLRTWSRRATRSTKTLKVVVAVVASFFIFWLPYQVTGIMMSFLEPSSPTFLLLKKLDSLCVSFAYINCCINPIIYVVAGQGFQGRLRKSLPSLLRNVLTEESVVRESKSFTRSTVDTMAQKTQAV

Substance | half-maximal effective concentration (EC50) of chemotaxis of BA/F3/huC5aR cells
recombinant human C5a (from UniProt P01031 678-751) (ligand) | 0.1 nM
mouse C5a (from UniProt P06684 679-755) (ligand) | 0.3 nM
